Laboratory results: patent KR20160103767A (dated 2016)

T1: 재조합 인간 TFPI (Recombinant human Tissue Factor Pathway Inhibitor, full-form, Cat.No.TFPI-875H, Creative Biomart) (human, UniProt P10646 29-304)
T1 sequence: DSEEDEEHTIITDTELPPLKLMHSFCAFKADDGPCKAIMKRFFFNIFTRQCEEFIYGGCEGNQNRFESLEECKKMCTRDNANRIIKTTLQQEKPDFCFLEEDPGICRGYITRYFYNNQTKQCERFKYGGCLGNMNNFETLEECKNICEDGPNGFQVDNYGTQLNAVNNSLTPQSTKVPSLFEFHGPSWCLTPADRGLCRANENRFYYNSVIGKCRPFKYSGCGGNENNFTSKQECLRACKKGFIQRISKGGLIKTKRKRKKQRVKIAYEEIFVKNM

B1: 클론 T417 (anti-TFPI chimeric antibody) (antibody, V domains shown)
VH: EVHLVESGGDLVKPGGSLKLSCAASGFTFSSYAMSWVRQTPDKRLEWVATITTGGSYTYYPDSVKGRFTISRDNAKNTLYLQMSSLKSEDTAMYYCARQDGNFLMDYWGQGTTVTVSS
VL: not shown
B2: 클론 T308 (anti-TFPI chimeric antibody) (antibody, V domains shown)
VH: EVKLVESGGGLVKPGGSLKLSCAASGFTFSNYPMSWVRQTPEKRLEWVATISNSGSYTYYPDSVKGRFTISRDNAKNTLYLQMNSLRSEDTAMYYCARQVYGNYEDFDYWGQGTTLTVSS
VL: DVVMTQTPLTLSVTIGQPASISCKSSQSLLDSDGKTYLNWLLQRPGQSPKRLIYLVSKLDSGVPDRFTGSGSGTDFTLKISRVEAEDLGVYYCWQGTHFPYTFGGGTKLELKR

Biological target: T1, 재조합 인간 TFPI (Recombinant human Tissue …)
Assay: cell-based or functional assay

| Binder | FXa activity assay: TFPI inhibition (10nM comparison), relative to positive control (mAb2021) | FXa activity assay: TFPI inhibition at 10nM antibody, relative to positive control | FXa activity assay: TFPI inhibition at 10nM antibody, relative to positive control (mAb2021) | FXa activity assay: TFPI inhibition at 40nM antibody, relative to positive control | TF/FVIIa/FXa complex assay: TFPI inhibition at 50nM antibody, relative to positive control (no antibody, no TFPI) | TF/FVIIa/FXa complex assay: TFPI inhibition at 100nM antibody, relative to positive control (no antibody, no TFPI) | TF/FVIIa/FXa complex assay: TFPI inhibition, relative to positive control (no antibody, no TFPI) |
| --- | --- | --- | --- | --- | --- | --- | --- |
| B1 | 77% | 72% | 78.4% | 89% | 100% | 100% | 100% |
| B2 | – | ~64% | – | 91% | ~87% | 100% | – |
